Blank lines part the entries; values can stand above or below the binder they belong to.
Legend:
[1] = target: H-NSW, variant of H-NS with a tryptophan at its C-terminus (E. coli) (UniProt P0ACF8); assay: fluorescence polarisation; steady-state tryptophan anisotropy; 2 uM H-NSW with ~30 nM to ~140 uM H-NS (tyrosine variant); excitation 295 nm; 170 mM ionic strength, 5 °C and 37 °C; apparent; fit to monomer-dimer (1:1) equilibrium
[2] = target: Cnu (E. coli); assay: other fluorescence titration; ~2 uM Cnu with ~30 nM to ~140 uM H-NS; W67 emission on excitation at 295 nm, intensity-averaged wavenumber; Hill fit; apparent; 170 mM ionic strength, sodium phosphate pH 8.0; temperatures from 5 to 37 °C
[3] = target: Cnu (E. coli); assay: other fluorescence titration; ~2 uM Cnu with ~30 nM to ~140 uM H-NS; W67 emission on excitation at 295 nm, intensity-averaged wavenumber; Hill fit; apparent; 500 mM ionic strength, sodium phosphate pH 8.0; temperatures from 5 to 37 °C
[4] = target: T1, H-NS (Escherichia coli, UniProt P0ACF8); assay: fluorescence anisotropy
T1 chain: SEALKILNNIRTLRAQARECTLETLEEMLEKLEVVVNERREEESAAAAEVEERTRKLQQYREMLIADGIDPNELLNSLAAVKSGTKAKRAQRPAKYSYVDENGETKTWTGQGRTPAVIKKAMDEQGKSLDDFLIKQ

Kd [1]: 100 to 150 µM | minimum oligomerization concentration [1]: 10 µM | fold increase in affinity against 500 mM IS [2]: 4 fold | K1/2 [3]: 100 µM
B1: H-NS (residues 1-59 of the N-terminal domain), the tyrosine variant (domain or fragment)
chain: MSEALKILNNIRTLRAQARESTLETLEEMLEKLEVVVNERREEESAAAAEVEERTRKLY

Kd [4]: ~125 µM
B2: Cnu (protein)
chain: MTVQDYLLKFRKISSLESLEKLYDHLNYTLTDDQELINMYRAADHRRAELVSGGRLFDLGQVPKSVWHYVQ
